Test results from PMC12603737, “Transmembrane domain interactions underlie NSG1 regulation of sortilin ectodomain shedding” (The Journal of Biological Chemistry, 2025).
Where a chain is given by its changes, count along the chain named.

What was measured:
[1] = biological target: T1, sortilin T770W (human, UniProt Q99523 78-831, T770W); assay: cell-based or functional assay
T1 sequence (looked up): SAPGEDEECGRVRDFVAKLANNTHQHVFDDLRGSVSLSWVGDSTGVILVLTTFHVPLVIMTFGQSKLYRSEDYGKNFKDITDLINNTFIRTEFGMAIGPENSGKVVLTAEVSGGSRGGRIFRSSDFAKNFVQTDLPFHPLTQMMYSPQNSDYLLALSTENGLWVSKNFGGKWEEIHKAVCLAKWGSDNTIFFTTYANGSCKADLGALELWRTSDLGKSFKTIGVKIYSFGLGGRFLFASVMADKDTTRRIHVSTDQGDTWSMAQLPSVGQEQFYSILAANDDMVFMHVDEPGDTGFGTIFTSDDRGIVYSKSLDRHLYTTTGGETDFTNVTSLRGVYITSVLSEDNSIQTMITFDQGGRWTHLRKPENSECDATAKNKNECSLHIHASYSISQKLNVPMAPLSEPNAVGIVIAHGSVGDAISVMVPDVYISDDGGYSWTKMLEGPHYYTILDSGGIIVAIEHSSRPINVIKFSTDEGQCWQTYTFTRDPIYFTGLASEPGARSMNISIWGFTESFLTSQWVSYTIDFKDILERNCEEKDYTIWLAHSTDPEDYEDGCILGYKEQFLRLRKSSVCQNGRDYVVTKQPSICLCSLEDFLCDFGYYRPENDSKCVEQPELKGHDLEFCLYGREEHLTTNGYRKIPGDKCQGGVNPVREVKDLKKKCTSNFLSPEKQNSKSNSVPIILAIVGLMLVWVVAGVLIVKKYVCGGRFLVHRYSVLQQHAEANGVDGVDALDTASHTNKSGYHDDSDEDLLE

[2] = biological target: T2, sortilin A773W (human, UniProt Q99523 78-831, A773W); assay: cell-based or functional assay
T2 sequence (looked up): T1 sequence (looked up) with W693T, A696W

[3] = biological target: T1, sortilin T770W; assay: co-IP; HEK293MSR cells overexpressing sortilin WT or TMD mutants along with NSG1; lysis in 5 mM CHAPS buffer; IP with rabbit anti-sortilin (control rabbit IgG), protein A-agarose, 4 °C; NSG1 normalized to precipitated sortilin, percent of WT; five independent experiments; settings: partners not purified
[4] = biological target: T2, sortilin A773W; assay: as above; settings: partners not purified
[5] = biological target: T3, sortilin Y781K (human, UniProt Q99523 78-831, Y781K); assay: as above; settings: partners not purified
T3 construct: signal peptide in the construct; propeptide too; Full-length human SORT1 with a mutation at the cytoplasmic border of the TMD; source: HEK293MSR, transfected, in lysate (5 mM CHAPS)
T3 sequence (looked up): T1 sequence (looked up) with W693T, Y704K

B1: neuron-specific gene 1 (NSG1) (natural protein, human, UniProt P42857 1-185, looked up)
chain: MVKLGNNFAEKGTKQPLLEDGFDTIPLMTPLDVNQLQFPPPDKVVVKTKTEYEPDRKKGKARPPQIAEFTVSITEGVTERFKVSVLVLFALAFLTCVVFLVVYKVYKYDRACPDGFVLKNTQCIPEGLESYYAEQDSSAREKFYTVINHYNLAKQSITRSVSPWMSVLSEEKLSEQETEAAEKSA
notes: Human NSG1, subcloned from the pPR3 yeast two-hybrid library vector into pcDNA3; UniProt P42857 is printed for the modelling; no tag is named, detection with an anti-NSG1 antibody; source: HEK293MSR, transiently transfected, in lysate (5 mM CHAPS)
Q: With B1 as the binder, how does the “sortilin ectodomain accumulated in conditioned media of HEK293MSR cells cotransfected with NSG1 (Western blot), percent of WT sortilin” value [1] read?
A: The value was 40 % of WT sortilin.

Q: What about the “sortilin ectodomain accumulated in conditioned media of HEK293MSR cells cotransfected with NSG1 (Western blot), percent of WT sortilin” value [2] of the same binder?
A: The value was 46 % of WT sortilin.

Q: What about the “NSG1 coimmunoprecipitated, normalized to immunoprecipitated sortilin, percent of WT sortilin” value [3] of the same binder?
A: Its value is 146%.

Q: And the “NSG1 coimmunoprecipitated, normalized to immunoprecipitated sortilin, percent of WT sortilin” value [4]?
A: The value was 129%.

Q: What about the “NSG1 coimmunoprecipitated, normalized to immunoprecipitated sortilin, percent of WT sortilin” value [5] of the same binder?
A: Its value is 130%.
